The target of test [1] is T1, human calcitonin receptor (human, UniProt P30988 25-474).
T1 sequence (looked up): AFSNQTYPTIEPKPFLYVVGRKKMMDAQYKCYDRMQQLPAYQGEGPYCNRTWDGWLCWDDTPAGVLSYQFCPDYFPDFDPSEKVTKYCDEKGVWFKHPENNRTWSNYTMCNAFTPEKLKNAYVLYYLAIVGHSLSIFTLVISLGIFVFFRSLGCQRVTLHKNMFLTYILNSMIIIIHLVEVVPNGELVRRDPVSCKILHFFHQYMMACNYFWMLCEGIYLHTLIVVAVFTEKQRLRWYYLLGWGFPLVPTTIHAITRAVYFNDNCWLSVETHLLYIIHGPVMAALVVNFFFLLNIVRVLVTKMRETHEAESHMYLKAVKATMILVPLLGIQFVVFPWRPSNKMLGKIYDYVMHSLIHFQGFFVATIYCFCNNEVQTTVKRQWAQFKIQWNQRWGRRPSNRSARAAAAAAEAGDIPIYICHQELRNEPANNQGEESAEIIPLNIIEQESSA
As to the kind of experiment: cell-based or functional assay.

Test [2] deals with T2, human amylin receptor (amylin 3(a) receptor: human calcitonin receptor plus RAMP-3) (human, UniProt P30988 25-474; O60896 24-148).
T2 sequence (looked up) 1: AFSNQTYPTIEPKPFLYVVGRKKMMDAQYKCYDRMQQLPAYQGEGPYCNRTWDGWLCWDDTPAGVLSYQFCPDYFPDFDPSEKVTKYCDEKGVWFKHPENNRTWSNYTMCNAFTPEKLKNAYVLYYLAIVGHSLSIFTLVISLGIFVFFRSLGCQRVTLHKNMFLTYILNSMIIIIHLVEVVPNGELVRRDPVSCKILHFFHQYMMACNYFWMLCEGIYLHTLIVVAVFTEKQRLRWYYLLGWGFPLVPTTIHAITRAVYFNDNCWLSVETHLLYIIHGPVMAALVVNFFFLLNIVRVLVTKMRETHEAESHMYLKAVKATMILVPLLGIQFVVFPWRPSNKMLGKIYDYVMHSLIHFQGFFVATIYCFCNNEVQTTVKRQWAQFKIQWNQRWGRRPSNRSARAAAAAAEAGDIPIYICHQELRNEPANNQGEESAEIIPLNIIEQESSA
T2 sequence (looked up) 2: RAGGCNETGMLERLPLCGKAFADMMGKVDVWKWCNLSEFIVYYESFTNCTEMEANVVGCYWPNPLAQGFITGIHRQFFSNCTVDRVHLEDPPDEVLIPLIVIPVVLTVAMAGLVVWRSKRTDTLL
Kind of test: cell-based or functional assay.

For test [3], the target named is T2, human amylin receptor (amylin 3(a) …). Kind of test: SPA competition binding, displacement of 125I-rat amylin, membranes of BHK amylin 3(a)/CRE-luc cells. How it is done:
The binding assay was performed using scintillation proximity assay (SPA) beads (RPNQ0001) from PerkinElmer and cell membranes from the Amylin 3(a)/CRE-luc cells (as described in Assay (II)) were used. Membranes were prepared in the following way; the cells were rinsed with PBS and incubated with Versene for approximately 5 min before harvesting. The cells were flushed with PBS and the cell-suspension was centrifuged for 5 min at 1000 rpm. Cells were homogenized (ultrathurrax) in a buffer containing 20 mM Na-HEPES and 10 mM EDTA (pH 7.4) and centrifuged at 20.000 rpm for 15 min. The resulting pellet was resuspended, homogenized and centrifuged (20.000 rpm, 15 min) in a buffer containing 20 mM Na-HEPES and 0.1 mM EDTA (pH 7.4, buffer 2). The resulting pellet was resuspended in buffer 2 and protein concentration was measured (BCA protein Assay, Pierce). The homogenate was kept cold during the whole procedure. The membranes were kept at −80° C. until use. The assay was performed in a 384 well Optiplate (PerkinElmer) in a total volume of 40 ul. Membranes were mixed with SPA beads. Final concentration of membranes 35 ng/μL final and SPA beads was 0.05 mg/well. Test-compounds were dissolved in DMSO and further diluted in assay buffer (50 mM Hepes, pH 7.4, 1 mM CaCl2, 5 mM MgCl₂, 0.1% OA and 0.02% Tween20). […] The final mixture was incubated with shaking at 400 rpm for 120 min at 25° C. prior to centrifugation (1500 rpm, 10 min). Samples were analyzed on TopCounter™ (Packard). The IC₅₀ was calculated using (one site binding competition analysis) GraphPad Prism5 as a measure of receptor affinity.
(In general: Loss of bound radioactivity is the signal in a displacement assay; it reports binding, not function.)

The values below come from US20140087995A1 (published 2014).

Numbered stars: 1 amine (or outer) side, 2 acyl side, 3 side chain; on linkers, the order of the positions; unused ones are H or OH. Bridge positions count the residues as written; N and C are the ends. Side chains are listed from the residue outwards. Ends that are not written are not given here. * marks the point of attachment. C20 diacid = O=C(O)CCCCCCCCCCCCCCCCCCC(=O)*; γGlu = O=C(O)[C@H](CCC(=O)[*:2])N[*:1]

B1: N^ε1-[(4S)-4-carboxy-4-(19-carboxynonadecanoylamino)butanoyl]-[Arg17,Pro21,Pro27,Glu35]-h-amylin (peptide)
peptide: K([γGlu-C20 diacid])CNTATCATQRLANFLRHSSPNFGAIPSSTNVGSETY-NH2
modifications: disulfide 2-7; N-terminus assumed
SMILES: CC[C@H](C)[C@H](NC(=O)[C@H](C)NC(=O)CNC(=O)[C@H](Cc1ccccc1)NC(=O)[C@H](CC(N)=O)NC(=O)[C@@H]1CCCN1C(=O)[C@H](CO)NC(=O)[C@H](CO)NC(=O)[C@H](Cc1c[nH]cn1)NC(=O)[C@H](CCCNC(=N)N)NC(=O)[C@H](CC(C)C)NC(=O)[C@H](Cc1ccccc1)NC(=O)[C@H](CC(N)=O)NC(=O)[C@H](C)NC(=O)[C@H](CC(C)C)NC(=O)[C@H](CCCNC(=N)N)NC(=O)[C@H](CCC(N)=O)NC(=O)[C@@H](NC(=O)[C@H](C)NC(=O)[C@@H]1CSSC[C@H](NC(=O)[C@@H](N)CCCCNC(=O)CC[C@H](NC(=O)CCCCCCCCCCCCCCCCCCC(=O)O)C(=O)O)C(=O)N[C@@H](CC(N)=O)C(=O)N[C@@H]([C@@H](C)O)C(=O)N[C@@H](C)C(=O)N[C@@H]([C@@H](C)O)C(=O)N1)[C@@H](C)O)C(=O)N1CCC[C@H]1C(=O)N[C@@H](CO)C(=O)N[C@@H](CO)C(=O)N[C@H](C(=O)N[C@@H](CC(N)=O)C(=O)N[C@H](C(=O)NCC(=O)N[C@@H](CO)C(=O)N[C@@H](CCC(=O)O)C(=O)N[C@H](C(=O)N[C@@H](Cc1ccc(O)cc1)C(N)=O)[C@@H](C)O)C(C)C)[C@@H](C)O
notes: also called compound 27
The term IC50 denotes the concentration needed to halve the response being measured. For B1, the “hCTR funct. EC50 (pM)” value in test [1] came to 3000 pM. In test [2], the “Ratio hCT/hAmylin funct.” value came to 22.6 and the “hAmylin-R funct. EC50 (pM)” value was 133 pM. Further, in test [3], the IC50 came to 0.837 nM.

B2: N^ε1-[(4S)-4-carboxy-4-(19-carboxynonadecanoylamino)butanoyl]-[Arg17,Pro21,Pro27,His35]-h-amylin (peptide)
peptide: K([γGlu-C20 diacid])CNTATCATQRLANFLRHSSPNFGAIPSSTNVGSHTY-NH2
modifications: disulfide 2-7; N-terminus assumed
SMILES: CC[C@H](C)[C@H](NC(=O)[C@H](C)NC(=O)CNC(=O)[C@H](Cc1ccccc1)NC(=O)[C@H](CC(N)=O)NC(=O)[C@@H]1CCCN1C(=O)[C@H](CO)NC(=O)[C@H](CO)NC(=O)[C@H](Cc1c[nH]cn1)NC(=O)[C@H](CCCNC(=N)N)NC(=O)[C@H](CC(C)C)NC(=O)[C@H](Cc1ccccc1)NC(=O)[C@H](CC(N)=O)NC(=O)[C@H](C)NC(=O)[C@H](CC(C)C)NC(=O)[C@H](CCCNC(=N)N)NC(=O)[C@H](CCC(N)=O)NC(=O)[C@@H](NC(=O)[C@H](C)NC(=O)[C@@H]1CSSC[C@H](NC(=O)[C@@H](N)CCCCNC(=O)CC[C@H](NC(=O)CCCCCCCCCCCCCCCCCCC(=O)O)C(=O)O)C(=O)N[C@@H](CC(N)=O)C(=O)N[C@@H]([C@@H](C)O)C(=O)N[C@@H](C)C(=O)N[C@@H]([C@@H](C)O)C(=O)N1)[C@@H](C)O)C(=O)N1CCC[C@H]1C(=O)N[C@@H](CO)C(=O)N[C@@H](CO)C(=O)N[C@H](C(=O)N[C@@H](CC(N)=O)C(=O)N[C@H](C(=O)NCC(=O)N[C@@H](CO)C(=O)N[C@@H](Cc1c[nH]cn1)C(=O)N[C@H](C(=O)N[C@@H](Cc1ccc(O)cc1)C(N)=O)[C@@H](C)O)C(C)C)[C@@H](C)O
notes: also called compound 60
Consider B2, for which the “hCTR funct. EC50 (pM)” value in test [1] was 5360 pM. Also, in test [2], the “Ratio hCT/hAmylin funct.” value amounted to 15.3 and the “hAmylin-R funct. EC50 (pM)” value was found to be 351 pM. For the same molecule, the IC50 in test [3] came out at 0.695 nM.
